The values below come from patent publication US20140295012A1, “LATENT HUMAN IMMUNODEFICIENCY VIRUS REACTIVATION” (priority 2011, published 2014).

Series [1] concerns chronically actively infected T cell lines (JNLG#35 and JNLG#44). Put plainly: Active HIV-1 transcription in chronically actively infected T cell lines JNLG#35 and JNLG#44 (GFP MCF). The note with it: 48 hours. Format: cell-based. As for the experimental part: Changes in HIV-1 transcription levels were determined after 48 hours by measuring GFP mean channel fluorescence intensity (GFP MCF). GFP MCF was plotted over the drug concentration for dactinomycin (FIG. 12A), the DNA intercalators daunorubicin (DM) (FIG. 12B) and rebeccamycin (RM) (FIG. 12C), as well as the transcription inhibitors ICRF-193 (FIG. 12D), DRB (FIG. 12E) and α-amanitin (FIG. 12F). The size of symbols indicates the respective cell viability in the sample (size range adjusted to 5-95%).
For this purpose, each of the compounds was titrated over a relevant range of concentrations on two chronically actively infected T cell lines (JNLG#35 and JNLG#44). These clonal cell lines are infected with a GFP-reporter virus. Forty eight hours after addition of the compounds, the effect of each compound on HIV-1 transcription was determined by flow cytometric analysis quantifying GFP mean channel fluorescence intensity (MCF).

A further series deals with cell culture. The series is described as follows: Cytotoxicity in cell culture and therapeutic index. Format: cell-based. The text has this:
The HRFs provided herein show little to no cytotoxicity and have a therapeutic index greater than 300. A therapeutic index is a comparison of the amount of a therapeutic agent that causes a therapeutic effect to the amount that causes death. The therapeutic index is a ratio given by the lethal dose of a drug or agent for 50% of the population (LD50) divided by the minimum effective therapeutic dose for 50% of the population (ED50). A high therapeutic index is preferable.

The subject of a further series is NF-κB p50 and p65. The series is described as follows: NF-κB p50 and p65 activity in PBMCs (TransAM NF-κB family ELISA). The class given is cell-based. The note with it: compared to PHA-L. As for the experimental part:
(§1) FIGS. 8A-8C show HRF induced NF-κB and cytokine expression in peripheral blood mononuclear cells (PBMCs). […] PBMCs were activated with optimal concentrations of either PHA-L or with HRF. Cells were harvested at the indicated time points. Nuclear extracts were generated and NF-κB p50 activity and NF-κB p65 activity were determined using the TransAM™ NF-κB family ELISA kit (Active Motif). […] PBMCs from four different healthy donors were stimulated with an anti-CD3/CD28 antibody combination and infected with a GFP reporter virus on day 4 post-stimulation. HIV-1 replication was monitored in the absence (C) or presence of HRF for 5 days and the achieved HIV-1 infection levels were determined by flow cytometric analysis for the percentage of EGFP-positive cells. All infections were normalized to the infection level in the untreated culture and the histogram represents the mean infection levels obtained in 4 donor cultures±standard deviation. […] Culture supernatants were collected after 24 hours and the concentrations of a panel of cytokines was determined by BioPlex analysis. […]
(§2) NF-κB activity in nuclear extracts was quantified using the TransAM™ NF-κB family ELISA kit from Active Motif, Inc. (Carlsbad, Calif.) according to the manufacturer's instructions.

Series [2] has as its system NF-κB p50. Put plainly: NF-κB p50 activity in nuclear extracts of latent CA5 T cells (TransAM NF-κB family ELISA). Format: cell-based. As for the experimental part: (§3) FIGS. 7A-7D are graphs showing the kinetics of HRF-mediated induction of NF-κB activity. Jurkat or latently HIV-1 infected CA5 T cells were stimulated with optimal concentrations of PMA and HRF, and cells were harvested at the indicated time points. Nuclear extracts were generated and (FIGS. 7A and 7C) NF-κB p50 activity and (FIGS. 7B and 7D) NF-κB p65 activity were determined using the TransAM™ NF-κB family ELISA kit (Active Motif; Carlsbad, Calif.).
(§4) Cells were grown in RPMI medium supplemented with 10% FBS and 1% PSG to approximately 5×10^5 cells per milliliter. Cells were centrifuged and resuspended in fresh pre-warmed medium. PMA, HRF and/or JNKiV were added immediately at the indicated concentrations. The final cell density for the assay was 1×10^6 cells per milliliter. The culture flasks were kept in a humidified CO2 incubator at 37° C. For each time point, a 1 ml cell suspension was removed and immediately centrifuged at full speed in a tabletop centrifuge for 30 seconds. […] The protein concentration of the extracts was determined by using the BCA protein assay Kit (ThermoFisher). […] The absorbance at 595 nm was determined using a 96 well plate reader (Synergy HT, BIO-Tek; Winooski, Vt.).
as §2

For series [3], the system named is NF-κB p50. Put plainly: NF-κB p50 activity in nuclear extracts of Jurkat cells (TransAM NF-κB family ELISA). Format: cell-based. The procedure:
as §3, §4, §2

In a further series the test system is NF-κB p65. Put plainly: NF-κB p65 activity in nuclear extracts of Jurkat cells (TransAM NF-κB family ELISA). The class given is cell-based. The procedure: as §3, §4, §2
The test system of the next series is Jurkat T cells. Put plainly: Protection of Jurkat T cells from poly (I:C) induced apoptosis (viability). Format: cell-based. The note with it: compared with Salmonella typhimurium flagellin. As for the experimental part:
High concentrations of poly (I:C) trigger apoptosis in Jurkat cells and reduce cell viability. Viability of control cells (C) was compared to the viability of cell cultures treated with poly (I:C) (10 μg/ml) and increasing amounts of either flagellin or HRF.

Another series deals with IL-8, TNF-α, and IFN-γ. The series is described as follows: Cytokine secretion by PBMCs (BioPlex analysis). Format: cell-based, human. The note with it: 24 hours. As for the experimental part: as §1, with “cells.” for “cells. All infections were normalized to the infection level in the untreated culture and the histogram represents the mean infection levels obtained in 4 donor cultures±standard deviation.”
Following stimulation of the peripheral blood mononuclear cells (PBMCs) with PHA-L or HIV-1 reactivating factor (HRF), supernatant samples were collected at time points between 12 and 48 hours post stimulation. […] Therefore, cytokine levels in culture supernatant samples from all donors were determined at the 24 hour time point using a customized Milliplex mAP kit for the simultaneous analysis of six human cytokines (IL-2, IL-4, IL-6, IL-8, TNF-α and IFN-γ). […]

*1 amine or outer side, *2 acyl side, *3 side chain or, on linkers, in order; H or OH if unused. Where a SMILES comes first, the peptide text is derived from it. Bridges are numbered along the chain shown (N, C = ends). Roman numbers before positions name the chains, in order. [ ]: non-standard residue; d: D form. Actinocin(9to1) = Cc1c2oc3c(C)ccc(C(=O)[*:1])c3nc-2c(C(=O)[*:2])c(N)c1=O; NMeV = CN[C@H](C(=O)O)C(C)C; Sar = CNCC(=O)O A value given as a limit tells only on which side of the number the result lay.

For the molecule `Cc1c2oc3c(C)ccc(C(=O)N[C@@H]4C(=O)N[C@H](C(C)C)C(=O)N5CCC[C@H]5C(=O)N(C)CC(=O)N(C)[C@@H](C(C)C)C(=O)O[C@@H]4C)c3nc-2c(C(=O)N[C@@H]2C(=O)N[C@H](C(C)C)C(=O)N3CCC[C@H]3C(=O)N(C)CC(=O)N(C)[C@@H](C(C)C)C(=O)O[C@@H]2C)c(N)c1=O` [dactinomycin] (I: T[dV]P[Sar][NMeV] / II: T[dV]P[Sar][NMeV]; ester I:1-I:C, II:1-II:C; linker I:N-II:N via Actinocin(9to1)), the “effect on active HIV-1 infection / transcription (GFP MCF)” value in series [1] is “did not boost active infection, but rather inhibited active infection”.

B1: HRF: flagellin polypeptide from Massilia timonae (SEQ ID NO:10), used as bacterial culture supernatant (protein)
chain: MASVINTNVPSLNSQRNLSTSQAQLNTSIQRLSSGMRINSAKDDAAGLAISDRMNSQIKGMTQATRNANDGVSMAQTAEGALSSSGDILQRIRELAVQSSNSSNSASDRKALQTEVTQLSSELNRIANTTEFNGQKLMDGTLGTANFQVGANAGQLISMTGANFNTSVYGNNQIAGDAAKAAATTSAAATGAFTISGYLGTSAAINTTDADTAKTIAASINNVTGDTGVTATARTDSFLKSAGGAHTMSLASDNSGTGEAVDISFTVGDGGDTADDYAAAISAFNAQTAKTGVTAEYDAVEKGLKLTNSAGENISLTNKAGSADIDMDTYAADGALMASALTLEAGDVGVANGRVTMDSEKSFSVAEGTDTGFELADSSALKSVAKIDISDFEGAQEAIKVADAALSAVNSQRAEYGALQSRFESAISNLSSSTENLSASRSRIVDTDFAAETAKMTRGQILQQAGTSMLAQANSLPNGVLSLLRG
Regarding B1, the “cytotoxicity in cell culture” value in the series on cell culture is listed as “far less cytotoxic”. Further, the therapeutic index in the series with cell culture (LD50/ED50) is recorded as more than 300. Besides, the “NF-κB p50 and p65 activity peak” value with NF-κB p50 and p65 is on record as “very high, but short-lived”. For the same molecule, in the series on NF-κB p50 [2], the “NF-κB p50 activity after the first 4 hours” value was “stabilizes at an elevated level”. In addition, in the series with NF-κB p50 [3] (Jurkat cells), the “NF-κB p50 activation amplitude compared to PMA stimulation” value is approximately 3 fold. Further, the “duration of induced NF-κB activity in comparison to PMA” value in the series with NF-κB p50 [3] (parental Jurkat T cells) is “less sustained”. In addition, the “NF-κB p65 activation amplitude compared to PMA stimulation” value in the series with NF-κB p65 is reported as approximately 3 fold. In the series with Jurkat T cells, the “protection from induced apoptosis” value is “greater efficacy”. Moreover, in the series with IL-8, TNF-α, and IFN-γ, the “pro-inflammatory cytokine secretion (IL-8, TNF-α, and IFN-γ)” value was “did not induce meaningful levels”.
